Data taken from the supplement of paper PMC12764529.
± gives the half width of the 95% confidence interval.

Key:
[1] = folding stability dG unfold from trypsin proteolysis; higher = more stable
How it was run: (§1)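 How resistant each design was to proteolysis was captured as K50, inferred by Bayesian fitting of sequencing counts. Unfolding free energy was then derived relative to a sequence-predicted unfolded-state K50 and a shared folded-state K50, per protease or combined. Digestion used trypsin and chymotrypsin at 11 threefold-diluted concentrations plus a no-protease condition, on mini-proteins under 80 residues without cysteine in a PA-tagged cDNA display construct. Designs were kept only when AlphaFold2 dimer inter-PAE was above 15.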

[2] = folding stability dG unfold from chymotrypsin proteolysis; higher = more stable
How it was run: as §1

[3] = folding stability dG unfold (combined trypsin and chymotrypsin); higher = more stable
How it was run: as §1

Sequence | folding stability dG unfold [1] [kcal/mol] | folding stability dG unfold [2] [kcal/mol] | folding stability dG unfold [3] [kcal/mol]
SAGGSAGGSGSMPVTIEIEYKDPKSDKTFKKTILVPPSVTDPEAVAEEVAKELGPVEKVKITSSAGGSAGGS [r12_942_JUSTAS] | 0.595 ± 0.061 | -0.44 ± 0.24 | 0.0443 ± 0.48
SAGGSAGGSGSSLVSETVEEGPGLTTRTLTYRLPGAPGVLLERTVTYDPEGNELATSLTVVPESAGGSAGGS [r12_62_JUSTAS] | 0.0552 ± 0.052 | 0.0935 ± 0.076 | 0.15 ± 0.059
SAGGSAGGSGWIKIEFWIPIPIPVMKFDPGDGNWEMEPVTIMIRVEIEIPIPPSPEDLEKNGLSAGGSAGGS [r20_172_TrROS] | 2.2 ± 0.15 | 2.82 ± 0.069 | 2.57 ± 0.27
SAGGSAGGSGWRPARVVRVERYRDPVNPRWYYRVEAELPDRRVTLVVPENAPVDEDGVLLIPFSAGGSAGGS [r20_49_TrMRF] | 1.09 ± 0.027 | 1.45 ± 0.042 | 1.35 ± 0.034
SAGGSAGGSGWYFHFEVSIWVMEFKYPGPDGKTMTMWFIMIEIKIEIVPPPPITPEDAAKMNGSAGGSAGGS [r12_1060_TrROS] | 2.66 ± 0.06 | 4.24 ± 0.087 | 3.76 ± 0.16
SAGGSAGGSHEIIIRVDSPEDAIEQAKSILRDHGIPEGFEPVPIEVLERDPNNGYYYVQIEVKSAGGSAGGS [r12_999_TrROS] | 0.601 ± 0.026 | -0.453 ± 0.077 | 0.178 ± 0.1
SAGGSAGGSHTIEIWIVKFPPDDFKGKTIEEMAKKFGDPDMPVEIVPIEITLPPDALKALLKNSAGGSAGGS [r12_178_TrROS] | 0.768 ± 0.033 | 0.841 ± 0.061 | 0.846 ± 0.059
SAGGSAGGSIPPDVPVDLGAEVEYFPPGGVRRVRFSAPDGTPVATATFVFRGGELVEVRIEPASAGGSAGGS [r12_264_TrMRF] | 1.89 ± 0.053 | 2.07 ± 0.13 | 2.05 ± 0.15
SAGGSAGGSITTVTGVYKTPDGNPTAATFEVANKPDGTVTYTVTVPGTGKTFSTDSLDLVTVDGSAGGSAGG [r6_255_JUSTAS] | 0.296 ± 0.027 | 0.563 ± 0.072 | 0.485 ± 0.042
SAGGSAGGSKAEIVSVEKLPEEGELYLVKIRVDGKTYTIAVPVGSTVTIDVPPGAEIEIRKLPSAGGSAGGS [r12_373_TrROS_Hall] | 1.62 ± 0.038 | 2.619 ± 0.019 | 2.32 ± 0.046
SAGGSAGGSKEKTYVIKVTITNENGEEFTLELTVTMTEEEAEELAKKLKELYPNAKVTIEKLPSAGGSAGGS [r12_268_TrROS_Hall] | 4.16 ± 0.21 | 4.09 ± 0.12 | 4.13 ± 0.16
SAGGSAGGSKGPVVILIFRPKYNPVKGIELEVEEVIVVSPEELSLSALGPALEEKEGYALILPSAGGSAGGS [r20_75_TrMRF] | 1.26 ± 0.015 | 1.32 ± 0.068 | 1.37 ± 0.038
SAGGSAGGSKIKIIVPKEKEEEAERLAKELKEKGEIPEVEIEVVESEEEAKELEEKADLVIVVSAGGSAGGS [r12_679_TrROS_Hall] | -0.562 ± 0.43 | 1.11 ± 0.19 | 0.805 ± 0.31
SAGGSAGGSKKEEFYKITVYSPNKKAEEIAKKIQEETGTEIVEVKAEKFKDGGIKVIALVKKTSAGGSAGGS [r12_359_TrMRF] | -0.213 ± 0.19 | -0.558 ± 0.67 | -0.0936 ± 0.48
SAGGSAGGSKKIIRFKTKEEAEEALKKAKPGETLEITLPNGEKIEVKVTKVERVDGYYYIEVESAGGSAGGS [r12_907_TrROS_Hall] | 2.53 ± 0.08 | 3.44 ± 0.077 | 3.13 ± 0.07
SAGGSAGGSKKIMIPGSPDTAFSTIKEWIRNGHEVPIYYYSPGNPEPVAEQEITIDEEENDELSAGGSAGGS [r12_241_TrROS] | -0.683 ± 0.3 | -0.183 ± 0.21 | -0.309 ± 0.2
SAGGSAGGSKKITIVVPTKEQAEALAKALEEAGYKVEKLPDGTLKITVDGKKIEVRIVPPKPKSAGGSAGGS [r12_204_TrROS_Hall] | 1.28 ± 0.023 | 3.15 ± 0.047 | 2.7 ± 0.059
SAGGSAGGSKKKIKITVEKVDEEKGYYYVTIEIYDEETGELVEKKTIVAPSKEEALKALKELLSAGGSAGGS [r12_26_TrROS_Hall] | 4.41 ± 0.32 | 3.5 ± 0.2 | 4.08 ± 0.35

Sequence | folding stability dG unfold [1] [kcal/mol] | folding stability dG unfold [2] [kcal/mol] | folding stability dG unfold [3] [kcal/mol]
SAGGSAGGSKKKKKITIEILIKLKPGESPEEIAKKLEEKLGLKVKKVEVVKENGYYLVKIEIESAGGSAGGS [r20_188_TrROS_Hall] | 1.52 ± 0.038 | 3.26 ± 0.044 | 2.85 ± 0.084
SAGGSAGGSKKKKKKIKIKIVVNEDELAKKLGLSKEEVRKLAKELADELKKKGYEVEIEIIPPSAGGSAGGS [r12_576_TrROS_Hall] | 1.87 ± 0.049 | 3.29 ± 0.054 | 2.89 ± 0.054
SAGGSAGGSKKKPPPVKVKIRVVVDGKVYEIEIEVDPNMTVEEIKEALRKLLGPDIKEVEIEPSAGGSAGGS [r12_300_TrROS_Hall] | 2.91 ± 0.29 | 1.93 ± 0.25 | 3.07 ± 0.64
SAGGSAGGSKKKTIVILVPPGMSVDAIKKKLKELGIKVKIVPAPPVKVKVDEKTNELKVEKVTSAGGSAGGS [r12_80_TrROS_Hall] | 0.874 ± 0.059 | 0.618 ± 0.086 | 0.657 ± 0.15
SAGGSAGGSKKKVKVKKFEKTKDADGNEVVKVFFEDDGKVVTLPEELADKLKEDDEFDLEDLASAGGSAGGS [r20_3_TrMRF] | -0.314 ± 0.077 | 0.381 ± 0.053 | 0.139 ± 0.1
SAGGSAGGSKKKVKVVKVEKLEDGSVRVLLYNEDGELVLEIEFPPGMTEEEVEELVKKLLEELSAGGSAGGS [r12_798_TrROS_Hall] | 2.47 ± 0.1 | 2.72 ± 0.13 | 2.69 ± 0.13
SAGGSAGGSKKKVVIEVVIKVKKEDEEKIKKALEKELEKLGFKVKEVKVERTKNYVKVTVVLESAGGSAGGS [r12_731_TrROS_Hall] | 2.7 ± 0.17 | 3.89 ± 0.2 | 3.63 ± 0.28
SAGGSAGGSKKKYIIKVKIYNENGELVEEKEIEAESEEEALEALAKNPNISKEEITKIEVYELSAGGSAGGS [r12_182_TrROS_Hall] | 2.24 ± 0.041 | 2.1 ± 0.054 | 2.19 ± 0.08
SAGGSAGGSKKPIDIKIEDVDHRRNPNGQPYMKIRIEIPGKPLLSYTFPPGASVEDFLKNILSSAGGSAGGS [r20_115_TrROS] | 1.1 ± 0.033 | 0.96 ± 0.1 | 1.09 ± 0.057
SAGGSAGGSKKPKFKVKKVEVVEENGKLRIRIVLEDGKKIEIEIKGLSKEEIEKKAKELLKKLSAGGSAGGS [r20_181_TrROS_Hall] | 3.57 ± 0.33 | 3.93 ± 0.2 | 3.66 ± 0.22
SAGGSAGGSKKPVKVTVTVEVNPETGEITKVTVTEEYKDGTVTVTVTNANGEKLTFTFKIKKPSAGGSAGGS [r12_60_TrROS_Hall] | 2.15 ± 0.11 | 3.099 ± 0.024 | 2.79 ± 0.082
SAGGSAGGSKKVTIVLSKEELRELFENLTPEQIAELLKKKFPKIKRVEVKEVDGKLVIEVEVESAGGSAGGS [r12_590_TrROS_Hall] | 3.15 ± 0.26 | 3.59 ± 0.1 | 3.43 ± 0.17
SAGGSAGGSKKVYLKVTVYHKNGKKTTLEIGPITDEDGKPIETYAKELAEHPDVEKVEVEVLGSAGGSAGGS [r12_199_TrMRF] | 3.79 ± 0.13 | 4.19 ± 0.13 | 4.05 ± 0.17
SAGGSAGGSKLKLEIPPGFKNVEIEVLKYNPDNGYIRVKITIYDPNNGKQFTMDRWIPADDLKSAGGSAGGS [r12_964_TrROS] | 1.62 ± 0.099 | 1.65 ± 0.16 | 1.56 ± 0.19
SAGGSAGGSKLSEEEKKKLAKKPKIKIKVKIRNKDGKEYKPGEKVKIEINGKIYEIESIEIEPSAGGSAGGS [r12_43_TrROS_Hall] | 1.12 ± 0.049 | 1.36 ± 0.04 | 1.3 ± 0.085
SAGGSAGGSKLVLRIVVRNKETGEWQTLELEIEVEESEEEALAKAKELLASLPEEDVKIEILPSAGGSAGGS [r12_871_TrROS_Hall] | 3.18 ± 0.14 | 3.79 ± 0.065 | 3.56 ± 0.071
SAGGSAGGSKNDWGEFDAEVPFFKEKKKVKIYKNPDNPNIYYIEFPKTGKIFKVYPNGEIKEESAGGSAGGS [r12_580_TrMRF] | 1.01 ± 0.062 | 1.75 ± 0.17 | 1.49 ± 0.16
